This assay deals with human FGFR1c + KLB receptor complex on HEK293 iLite FGF21 reporter cells (human, UniProt P11362 22-822; Q86Z14 1-1044). The assay is described as follows: cell-based or functional assay.

Positions count from the first letter of the chain named.

Sequence of human FGFR1c + KLB receptor complex on HEK293 iLite FGF21 reporter cells (P11362 22-822, chain 1 of 2): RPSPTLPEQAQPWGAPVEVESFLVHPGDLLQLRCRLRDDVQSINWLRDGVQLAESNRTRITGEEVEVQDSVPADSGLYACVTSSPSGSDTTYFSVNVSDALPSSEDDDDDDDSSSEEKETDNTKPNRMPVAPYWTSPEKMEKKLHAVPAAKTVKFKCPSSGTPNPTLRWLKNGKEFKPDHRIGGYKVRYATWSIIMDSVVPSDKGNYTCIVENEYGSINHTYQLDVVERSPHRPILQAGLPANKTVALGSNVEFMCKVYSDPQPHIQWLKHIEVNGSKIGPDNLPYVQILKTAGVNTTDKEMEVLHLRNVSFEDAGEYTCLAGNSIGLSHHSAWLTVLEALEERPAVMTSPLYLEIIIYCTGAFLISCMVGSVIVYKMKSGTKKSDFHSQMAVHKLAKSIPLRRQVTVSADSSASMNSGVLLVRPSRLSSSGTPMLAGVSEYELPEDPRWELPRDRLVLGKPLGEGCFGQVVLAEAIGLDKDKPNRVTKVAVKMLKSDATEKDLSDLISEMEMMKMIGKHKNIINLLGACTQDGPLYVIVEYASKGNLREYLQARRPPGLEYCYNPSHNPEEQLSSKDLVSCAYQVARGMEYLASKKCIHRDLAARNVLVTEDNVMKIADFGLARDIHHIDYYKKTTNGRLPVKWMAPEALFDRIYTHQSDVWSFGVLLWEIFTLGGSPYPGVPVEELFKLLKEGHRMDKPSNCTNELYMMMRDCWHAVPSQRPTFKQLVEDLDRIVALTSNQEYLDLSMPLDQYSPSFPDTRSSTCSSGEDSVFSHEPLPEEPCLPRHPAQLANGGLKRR
Sequence of human FGFR1c + KLB receptor complex on HEK293 iLite FGF21 reporter cells (Q86Z14 whole entry, chain 2 of 2): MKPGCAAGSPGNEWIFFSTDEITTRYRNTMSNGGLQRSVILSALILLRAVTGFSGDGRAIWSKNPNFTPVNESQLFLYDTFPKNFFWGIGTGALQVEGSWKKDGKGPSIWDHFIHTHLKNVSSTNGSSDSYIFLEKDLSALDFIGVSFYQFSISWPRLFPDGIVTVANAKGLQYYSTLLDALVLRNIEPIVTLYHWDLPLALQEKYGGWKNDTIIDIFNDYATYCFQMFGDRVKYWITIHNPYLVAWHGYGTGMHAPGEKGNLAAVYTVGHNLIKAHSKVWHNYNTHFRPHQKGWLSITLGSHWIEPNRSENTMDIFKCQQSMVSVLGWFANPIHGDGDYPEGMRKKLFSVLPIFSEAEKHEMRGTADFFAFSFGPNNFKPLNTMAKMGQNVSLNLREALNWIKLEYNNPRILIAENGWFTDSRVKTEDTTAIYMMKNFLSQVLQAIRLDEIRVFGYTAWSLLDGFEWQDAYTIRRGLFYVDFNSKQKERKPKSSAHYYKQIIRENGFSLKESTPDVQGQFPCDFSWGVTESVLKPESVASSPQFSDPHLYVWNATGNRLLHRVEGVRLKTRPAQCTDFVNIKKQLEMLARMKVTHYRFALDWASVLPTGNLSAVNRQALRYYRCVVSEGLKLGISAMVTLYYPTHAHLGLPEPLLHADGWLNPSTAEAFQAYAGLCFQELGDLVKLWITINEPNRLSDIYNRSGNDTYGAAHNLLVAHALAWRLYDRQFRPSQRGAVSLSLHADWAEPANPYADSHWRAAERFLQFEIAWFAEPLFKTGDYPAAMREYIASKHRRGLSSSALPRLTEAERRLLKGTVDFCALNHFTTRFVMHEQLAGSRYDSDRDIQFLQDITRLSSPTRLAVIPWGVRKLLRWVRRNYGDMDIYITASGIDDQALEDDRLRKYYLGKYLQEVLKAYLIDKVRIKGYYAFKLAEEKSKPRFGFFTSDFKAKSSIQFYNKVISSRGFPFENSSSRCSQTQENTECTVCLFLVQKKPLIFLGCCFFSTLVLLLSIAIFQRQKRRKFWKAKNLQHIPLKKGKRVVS

B1: Ab0299 (antibody, IgG4, V domains shown)
VH: QVTLKESGPVLVKPTETLTLTCTVSGFSLNNARVGVSWIRQPPGKALEWLAHIFSNDEKSYSTSLKSRLTISKDTSKSQVVLTMTNMDPVDTATYYCARSVVTGGYYYEGMDVWGQGTTVTVSS
VL: SYVLTQPPSVSVAPGQTARITCGGSNIGSESVHWYQQKPGQAPVLVVYDDSDRPSGIPERFSGSNSGNTATLTISRVEAGDEADYYCQVWTGNSDHVVFGGGTKLTVLG
On to B1, for which the EC50 was 0.1 nM and the Emax turned out to be 1240%.

B2: Ab0300 (antibody, IgG4, V domains shown)
VH: B1 VH
VL: B1 VL with S25N, D49Y
Consider B2, for which the EC50 worked out at 2.63 nM and the Emax turned out to be 605%.

B3: Ab0303 (antibody, IgG4, V domains shown)
VH: B1 VH
VL: B1 VL with D50E
For the molecule B3, the EC50 was determined as 19.2 nM and the Emax came to 809%.

B4: Ab0320 (antibody, IgG4, V domains shown)
VH: B1 VH
VL: B1 VL with D49Y, D50E, N93E
In the case of B4, the concentration giving a half-maximal response (EC50) was 1.29 nM and the Emax was 699%.

B5: Ab0302 (antibody, IgG4, V domains shown)
VH: B1 VH
VL: B1 VL with S25N, D50E
Regarding B5, the EC50 was 3.94 nM and the Emax was found to be 795%.

B6: Ab0316 (antibody, IgG4, V domains shown)
VH: B1 VH
VL: B1 VL with D49Y, N93E
For B6, the EC50 is 0.45 nM and the maximal response (Emax) was 730%.

B7: Ab0318 (antibody, IgG4, V domains shown)
VH: B1 VH
VL: B1 VL with D50E, N93E
For the molecule B7, the EC50 was 0.3 nM and the Emax is 817%.

B8: Ab0395 (antibody, IgG4, V domains shown)
VH: B1 VH with F54W
VL: SYVLTQPPSVSVAPGQTARITCGGNNIGSESVHWYQQKPGQAPVLVVDDSDRPSGIPERFSGSNSGNTATLTISRVEAGDEADYYCQVFDGNSAHVVFGGGTKLTVLG
In the case of B8, the concentration giving a half-maximal response (EC50) was above 100 nM.

B9: Ab0304 (antibody, IgG4, V domains shown)
VH: B1 VH
VL: B1 VL with S25N, D49Y, D50E
In the case of B9, the EC50 was 11.4 nM and the Emax is 686%.

B10: Ab0319 (antibody, IgG4, V domains shown)
VH: B1 VH
VL: B1 VL with S25N, D49Y, D50E, N93E
Take B10: the EC50 turned out to be 0.3 nM and the maximum response (Emax) was found to be 698%.

B11: Ab0301 (antibody, IgG4, V domains shown)
VH: B1 VH
VL: B1 VL with D49Y
As for B11, the EC50 worked out at 21.5 nM and the Emax worked out at 697%.

B12: Ab0315 (antibody, IgG4, V domains shown)
VH: B1 VH
VL: B1 VL with S25N, D49Y, N93E
As for B12, the EC50 is 0.37 nM and the Emax is 806%.

B13: Ab0317 (antibody, IgG4, V domains shown)
VH: B1 VH
VL: B1 VL with S25N, D50E, N93E
Turning to B13, the concentration for a half-maximal effect (EC50) came out at 0.17 nM and the Emax is 968%.

B14: Ab0305 (antibody, IgG4, V domains shown)
VH: B1 VH
VL: B1 VL with D49Y, D50E
For B14, the EC50 is 208 nM and the Emax came to 647%.
